# B1: BBSome complex member BBS4 (Homo sapiens), Q96RK4 (parent)
# chain: MAEERVATRTQFPVSTESQKPRQKKAPEFPILEKQNWLIHLHYIRKDYEACKAVIKEQLQETQGLCEYAIYVQALIFRLEGNIQESLELFQTCAVLSPQSADNLKQVARSLFLLGKHKAAIEVYNEAAKLNQKDWEISHNLGVCYIYLKQFNKAQDQLHNALNLNRHDLTYIMLGKIHLLEGDLDKAIEVYKKAVEFSPENTELLTTLGLLYLQLGIYQKAFEHLGNALTYDPTNYKAILAAGSMMQTHGDFDVALTKYRVVACAVPESPPLWNNIGMCFFGKKKYVAAISCLKRANYLAPFDWKILYNLGLVHLTMQQYASAFHFLSAAINFQPKMGELYMLLAVALTNLEDIENAKRAYAEAVHLDKCNPLVNLNYAVLLYNQGEKKNALAQYQEMEKKVSLLKDNSSLEFDSEMVEMAQKLGAALQVGEALVWTKPVKDPKSKHQTTSTSKPASFQQPLGSNQALGQAMSSAAAYRTLPSGAGGTSQFTKPPSLPLEPEPAVESSPTETSEQIREK
# partner: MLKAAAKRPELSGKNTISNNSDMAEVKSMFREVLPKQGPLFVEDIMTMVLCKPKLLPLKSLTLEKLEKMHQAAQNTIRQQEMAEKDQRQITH
# Variants of: B1
# Conditions: with bbip1_human BBIP1, A8MTZ0
row,effect of a mutation on the interaction,Variant
1,with no effect,MAEERVATRTQFPVSTESQKPRQKKAPEFPILEKQNWLIHLHYIRKDYEACKAVIKEQLQETQGLCEYAIYVQALIFRLEGNIQESLELFQTCAVLSPQSADNLKQVARSLFLLGKHKAAIEVYNEAAKLNQKDWEISHNLGVCYIYLKQFNKAQDQLHNALNLNRHDLTYIMLGKIHLLEGDLDKAIEVYKKAVEFSPENTELLTTLGLLYLQLGIYQKAFEHLGNALTYDPTNYKAILAAGSMMQTHGDFDVALTKYRVVACAVPESPPLWNNIGMCFFGKKKYVAAISCLKRANYLAPFDWKILYNLGLVHLTMQQYASAFHFLSAAINFQPKMGELYMLLAVALTNLEDIENAKRAYAEAVHLDKCNPLVNLNYAVLLYNQGEKKNALAQYQEMEKKVSLLKDNSSLEFDSEMVEMAQKLAAALQVGEALVWTKPVKDPKSKHQTTSTSKPASFQQPLGSNQALGQAMSSAAAYRTLPSGAGGTSQFTKPPSLPLEPEPAVESSPTETSEQIREK [G425A]
2,with no effect,MAEERVATRTQFPVSTESQKPRQKKAPEFPILEKQNWLIHLHYIRKDYEACKAVIKEQLQETQGLCEYAIYVQALIFRLEGNIQESLELFQTCAVLSPQSADNLKQVARSLFLLGKHKAAIEVYNEAAKLNQKDWEISHNLGVCYIYLKQFNKAQDQLHNALNLNRHDLTYIMLGKIHLLEGDLDKAIEVYKKAVEFSPENTELLTTLGLLYLQLGIYQKAFEHLGNALTYDPTNYKAILAAGSMMQTHGDFDVALTKYRVVACAVPESPPLWNNIGMCFFGKKKYVAAISCLKRANYLAPFDWKILYNLGLVHLTMQQYASAFHFLSAAINFQPKMGELYMLLAVALTNLEDIENAKRAYAEAVHLDKCNPLVNLNYAVLLYNQGEKKNALAQYQEMEKKVSLLKDNSSLEFDSEMVEMAQKLGAALQVGEALVWTKPVKDPKSKHQTTSTSKPASEQQPLGSNQALGQAMSSAAAYRTLPSGAGGTSQFTKPPSLPLEPEPAVESSPTETSEQIREK [F458E]
3,with no effect,MAEERVATRTQFPVSTESQKPRQKKAPEFPILEKQNWLIHLHYIRKDYEACKAVIKEQLQETQGLCEYAIYVQALIFRLEGNIQESLELFQTCAVLSPQSADNLKQVARSLFLLGKHKAAIEVYNEAAKLNQKDWEISHNLGVCYIYLKQFNKAQDQLHNALNLNRHDLTYIMLGKIHLLEGDLDKAIEVYKKAVEFSPENTELLTTLGLLYLQLGIYQKAFEHLGNALTYDPTNYKAILAAGSMMQTHGDFDVALTKYRVVACAVPESPPLWNNIGMCFFGKKKYVAAISCLKRANYLAPFDWKILYNLGLVHLTMQQYASAFHFLSAAINFQPKMGELYMLLAVALTNLEDIENAKRAYAEAVHLDKCNPLVNLNYAVLLYNQGEKKNALAQYQEMEKKVSLLKDNSSLEFDSEMVEMAQKLGAALQVGEALVWTKPVKDPKSKHQTTSTSKPASFQQPLGSNQALGQAMSSAAAYRTLPSGAGGTSQFTKPPSLPLEPEPAAESSPTETSEQIREK [V505A]
4,with no effect,MAEERVATRTQFPVSTESQKPRQKKAPEFPILEKQNWLIHLHYIRKDYEACKAVIKEQLQETQGLCEYAIYVQALIFRLEGNIQESLELFQTCAVLSPQSADNLKQVARSLFLLGKHKAAIEVYNEAAKLNQKDWEISHNLGVCYIYLKQFNKAQDQLHNALNLNRHDLTYIMLGKIHLLEGDLDKAIEVYKKAVEFSPENTELLTTLGLLYLQLGIYQKAFEHLGNALTYDPTNYKAILAAGSMMQTHGDFDVALTKYRVVACAVPESPPLWNNIGMCFFGKKKYVAAISCLKRANYLAPFDWKILYNLGLVHLTMQQYASAFHFLSAAINFQPKMGELYMLLAVALTNLEDIENAKRAYAEAVHLDKCNPLVNLNYAVLLYNQGEKKNELAQYQEMEKKVSLLKDNSSLEFDSEMVEMAQKLGAALQVGEALVWTKPVKDPKSKHQTTSTSKPASFQQPLGSNQALGQAMSSAAAYRTLPSGAGGTSQFTKPPSLPLEPEPAVESSPTETSEQIREK [A391E]
5,with no effect,MAEERVATRTQFPVSTESQKPRQKKAPEFPILEKQNWLIHLHYIRKDYEACKAVIKEQLQETQGLCEYAIYVQALIFRLEGNIQESLELFQTCAVLSPQSADNLKQVARSLFLLGKHKAAIEVYNEAAKLNQKDWEISHNLGVCYIYLKQFNKAQDQLHNALNLNRHDLTYIMLGKIHLLEGDLDKAIEVYKKAVEFSPENTELLTTLGLLYLQLGIYQKAFEHLGNALTYDPTNYKAILAAGSMMQTHGDFDVALTKYRVVACAVPESPPLWNNIGMCFFGKKKYVAAISCLKRANYLAPFDWKILYNLGLVHLTMQQYASAFHFLSAAINFQPKMGELYMLLAVALTNLEDIENAKRAYAEAVHLDKCNPLVNLNYAVALYNQGEKKNALAQYQEMEKKVSLLKDNSSLEFDSEMVEMAQKLGAALQVGEALVWTKPVKDPKSKHQTTSTSKPASFQQPLGSNQALGQAMSSAAAYRTLPSGAGGTSQFTKPPSLPLEPEPAVESSPTETSEQIREK [L381A]

# Continued, variant first:
row,Variant,effect of a mutation on the interaction
1,MAEERVATRTQFPVSTESQKPRQKKAPEFPILEKQNWLIHLHYIRKDYEACKAVIKEQLQETQGLCEYAIYVQALIFRLEGNIQESLELFQTCAVLSPQSADNLKQVARSLFLLGKHKAAIEVYNEAAKLNQKDWEISHNLGVCYIYLKQFNKAQDQLHNALNLNRHDLTYIMLGKIHLLEGDLDKAIEVYKKAVEFSPENTELLTTLGLLYLQLGIYQKAFEHLGNALTYDPTNYKAILAAGSMMQTHGDFDVALTKYRVVACAVPESPPLWNNIGMCFFGKKKYVAAISCLKRANYLAPFDWKILKNLGLVHLTMQQYASAFHFLSAAINFQPKMGELYMLLAVALTNLEDIENAKRAYAEAVHLDKCNPLVNLNYAVLLYNQGEKKNALAQYQEMEKKVSLLKDNSSLEFDSEMVEMAQKLGAALQVGEALVWTKPVKDPKSKHQTTSTSKPASFQQPLGSNQALGQAMSSAAAYRTLPSGAGGTSQFTKPPSLPLEPEPAVESSPTETSEQIREK [Y308K],with no effect
2,MAEERVATRTQFPVSTESQKPRQKKAPEFPILEKQNWLIHLHYIRKDYEACKAVIKEQLQETQGLCEYAIYVQALIFRLEGNIQESLELFQTCAVLSPQSADNLKQVARSLFLLGKHKAAIEVYNEAAKLNQKDWEISHNLGVCYIYLKQFNKAQDQLHNALNLNRHDLTYIMLGKIHLLEGDLDKAIEVYKKAVEFSPENTELLTTLGLLYLQLGIYQKAFEHLGNALTYDPTNYKAILAAGSMMQTHGDFDVALTKYRVVACAVPESPPLWNNIGMCFFGKKKYVAAIKCLKRANYLAPFDWKILYNLGLVHLTMQQYASAFHFLSAAINFQPKMGELYMLLAVALTNLEDIENAKRAYAEAVHLDKCNPLVNLNYAVLLYNQGEKKNALAQYQEMEKKVSLLKDNSSLEFDSEMVEMAQKLGAALQVGEALVWTKPVKDPKSKHQTTSTSKPASFQQPLGSNQALGQAMSSAAAYRTLPSGAGGTSQFTKPPSLPLEPEPAVESSPTETSEQIREK [S291K],with no effect
3,MAEERVATRTQFPVSTESQKPRQKKAPEFPILEKQNWLIHLHYIRKDYEACKAVIKEQLQETQGLCEYAIYVQALIFRLEGNIQESLELFQTCAVLSPQSADNLKQVARSLFLLGKHKAAIEVYNEAAKLNQKDWEISHNLGVCYIYLKQFNKAQDQLHNALNLNRHDLTYIMLGKIHLLEGDLDKAIEVYKKAVEFSPENTELLTTLGLLYLQLGIYQKAFEHLGNALTYDPTNYKAILAAGSMMQTHGDFDVALTKYRVVACAVPESPPLWNNIGMCFFGKKKYVAAISCLKRANYLAEFDWKILYNLGLVHLTMQQYASAFHFLSAAINFQPKMGELYMLLAVALTNLEDIENAKRAYAEAVHLDKCNPLVNLNYAVLLYNQGEKKNALAQYQEMEKKVSLLKDNSSLEFDSEMVEMAQKLGAALQVGEALVWTKPVKDPKSKHQTTSTSKPASFQQPLGSNQALGQAMSSAAAYRTLPSGAGGTSQFTKPPSLPLEPEPAVESSPTETSEQIREK [P301E],with no effect
4,MAEERVATRTQFPVSTESQKPRQKKAPEFPILEKQNWLIHLHYIRKDYEACKAVIKEQLQETQGLCEYAIYVQALIFRLEGNIQESLELFQTCAVLSPQSADNLKQVARSLFLLGKHKAAIEVYNEAAKLNQKDWEISHNLGVCYIYLKQFNKAQDQLHNALNLNRHDLTYIMLGKIHLLEGDLDKAIEVYKKAVEFSPENTELLTTLGLLYLQLGIYQKAFEHLGNALTYDPTNYKAILAAGSMMQTHGDFDVALTKYRVVACAVPESPPLWNNIGMCFFGKKKYVAAISCLKRANYLAPFDWKILYNLGLVHLTMQQYASAFHFLSAAINFQPKMGELYMLLAVALTNLEKIENAKRAYAEAVHLDKCNPLVNLNYAVLLYNQGEKKNALAQYQEMEKKVSLLKDNSSLEFDSEMVEMAQKLGAALQVGEALVWTKPVKDPKSKHQTTSTSKPASFQQPLGSNQALGQAMSSAAAYRTLPSGAGGTSQFTKPPSLPLEPEPAVESSPTETSEQIREK [D353K],with no effect
5,MAEERVATRTQFPVSTESQKPRQKKAPEFPILEKQNWLIHLHYIRKDYEACKAVIKEQLQETQGLCEYAIYVQALIFRLEGNIQESLELFQTCAVLSPQSADNLKQVARSLFLLGKHKAAIEVYNEAAKLNQKDWEISHNLGVCYIYLKQFNKAQDQLHNALNLNRHDLTYIMLGKIHLLEGDLDKAIEVYKKAVEFSPENTELLTTLGLLYLQLGIYQKAFEHLGNALTYDPTNYKAILAAGSMMQTHGDFDVALTKYRVVACAVPESPPLWNNIGMCFFGKKKYVAAISCLKRANYLAPFDWKILYNLGLVHLTMQQYAAAFHFLSAAINFQPKMGELYMLLAVALTNLEDIENAKRAYAEAVHLDKCNPLVNLNYAVLLYNQGEKKNALAQYQEMEKKVSLLKDNSSLEFDSEMVEMAQKLGAALQVGEALVWTKPVKDPKSKHQTTSTSKPASFQQPLGSNQALGQAMSSAAAYRTLPSGAGGTSQFTKPPSLPLEPEPAVESSPTETSEQIREK [S322A],with no effect
6,MAEERVATRTQFPVSTESQKPRQKKAPEFPILEKQNWLIHLHYIRKDYEACKAVIKEQLQETQGLCEYAIYVQALIFRLEGNIQESLELFQTCAVLSPQSADNLKQVARSLFLLGKHKAAIEVYNEAAKLNQKDWEISHNLGVCYIYLKQFNKAQDQLHNALNLNRHDLTYIMLGKIHLLEGDLDKAIEVYKKAVEFSPENTELLTTLGLLYLQLGIYQKAFEHLGNALTYDPTNYKAILAAGSMMQTHGDFDVALTKYRVVACAVPESPPLWNNIGMEFFGKKKYVAAISCLKRANYLAPFDWKILYNLGLVHLTMQQYASAFHFLSAAINFQPKMGELYMLLAVALTNLEDIENAKRAYAEAVHLDKCNPLVNLNYAVLLYNQGEKKNALAQYQEMEKKVSLLKDNSSLEFDSEMVEMAQKLGAALQVGEALVWTKPVKDPKSKHQTTSTSKPASFQQPLGSNQALGQAMSSAAAYRTLPSGAGGTSQFTKPPSLPLEPEPAVESSPTETSEQIREK [C279E],with no effect
7,MAEERVATRTQFPVSTESQKPRQKKAPEFPILEKQNWLIHLHYIRKDYEACKAVIKEQLQETQGLCEYAIYVQALIFRLEGNIQESLELFQTCAVLSPQSADNLKQVARSLFLLGKHKAAIEVYNEAAKLNQKDWEISHNLGVCYIYLKQFNKAQDQLHNALNLNRHDLTYIMLGKIHLLEGDLDKAIEVYKKAVEFSPENTELLTTLGLLYLQLGIYQKAFEHLGNALTYDPTNYKAILAAGSMMQTHGDFDVALTKYRVVACAVPESPPLWNNIGMCFFGKKKYVAAISCLKRANYLAPFDWKILYDLGLVHLTMQQYASAFHFLSAAINFQPKMGELYMLLAVALTNLEDIENAKRAYAEAVHLDKCNPLVNLNYAVLLYNQGEKKNALAQYQEMEKKVSLLKDNSSLEFDSEMVEMAQKLGAALQVGEALVWTKPVKDPKSKHQTTSTSKPASFQQPLGSNQALGQAMSSAAAYRTLPSGAGGTSQFTKPPSLPLEPEPAVESSPTETSEQIREK [N309D],disrupting interaction strength

# From IntAct's records for PubMed 29039417
